Laboratory results from IntAct's records for PubMed 25678599.

B1: WW domain-containing oxidoreductase (Homo sapiens), Q9NZC7 (parent)
chain: MAALRYAGLDDTDSEDELPPGWEERTTKDGWVYYANHTEEKTQWEHPKTGKRKRVAGDLPYGWEQETDENGQVFFVDHINKRTTYLDPRLAFTVDDNPTKPTTRQRYDGSTTAMEILQGRDFTGKVVVVTGANSGIGFETAKSFALHGAHVILACRNMARASEAVSRILEEWHKAKVEAMTLDLALLRSVQHFAEAFKAKNVPLHVLVCNAATFALPWSLTKDGLETTFQVNHLGHFYLVQLLQDVLCRSAPARVIVVSSESHRFTDINDSLGKLDFSRLSPTKNDYWAMLAYNRSKLCNILFSNELHRRLSPRGVTSNAVHPGNMMYSNIHRSWWVYTLLFTLARPFTKSMQQGAATTVYCAAVPELEGLGGMYFNNCCRCMPSPEAQSEETARTLWALSERLIQERLGSQSG
partner: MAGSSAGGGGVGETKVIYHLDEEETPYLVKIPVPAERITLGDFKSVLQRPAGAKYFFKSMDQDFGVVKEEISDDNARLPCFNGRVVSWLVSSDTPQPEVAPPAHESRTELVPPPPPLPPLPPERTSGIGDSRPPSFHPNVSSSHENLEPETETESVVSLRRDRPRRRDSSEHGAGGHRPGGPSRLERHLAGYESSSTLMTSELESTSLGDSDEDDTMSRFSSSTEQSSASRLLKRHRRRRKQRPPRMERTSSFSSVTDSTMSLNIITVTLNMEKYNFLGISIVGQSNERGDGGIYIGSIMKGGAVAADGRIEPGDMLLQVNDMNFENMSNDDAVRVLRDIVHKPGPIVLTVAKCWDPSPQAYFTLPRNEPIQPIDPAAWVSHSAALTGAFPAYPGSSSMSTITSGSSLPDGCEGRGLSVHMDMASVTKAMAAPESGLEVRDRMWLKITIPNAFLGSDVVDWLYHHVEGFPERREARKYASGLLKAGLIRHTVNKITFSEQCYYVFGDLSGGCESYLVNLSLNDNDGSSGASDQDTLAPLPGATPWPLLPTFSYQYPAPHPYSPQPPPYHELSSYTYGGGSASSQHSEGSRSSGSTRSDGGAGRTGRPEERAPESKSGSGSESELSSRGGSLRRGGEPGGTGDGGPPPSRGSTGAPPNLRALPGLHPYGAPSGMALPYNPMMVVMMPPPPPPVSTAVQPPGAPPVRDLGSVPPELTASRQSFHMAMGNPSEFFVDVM
B2: B-cell CLL/lymphoma 9-like protein (Mus musculus), Q67FY2 (parent)
chain: MRILANKTRLPHPRRREAPGSPPLSPRGHCPPAPAKPMHPENKLTNHGKTGNGGAQSQHQNVNQGPTCNLGSKGVGAGSHGAKANQISPSNSSLKNPQAGVSPFSSLKGKVKRERSVSVDSGEQREAGTPSLDSEAKEVAPRSKRRCVLERKQPYSGDEWCSGPDSEEDDKPIAAAHNCNVADPAMVTPQLGPGQTAQLPLSESSAPGPQHGPQPGLRPDVPGGGGGGVPGKPPSQFVYVFTTHLANTAAEAVLQGRAESILAYHQQNVPRAKLDQAPKVPPTPEPLPLNTPSAGTPQSQPPPLPPPPPAPGSAPPALPPEGPPEDTSQDLAPNSVGAASTGGGTGGTHPNTPTAATANNPLPPGGDPGSAPGSALLGEATPTGNGQRNLVGSEGLSKEQLEHRERSLQTLRDIERLLLRSGETEPFLKGPPGGAGEGGPPAQAPSAAQPPPSAPPGGLKKYEEPLQSMISQTQSLGGPPLEHEVPGHPQGGDMGQQMNMMMQRLGQDSLTPEQVAWRKLQEEYYEEKRRKEEQIGLHGGRPLQDMVGMGGMMGRGPPPPYHSKPGDQWPPGMGAQLRGPMDVQDPMQLRPGPPFPGPRFPGNQMQRVPGFGGMQSMPMEVPMNAMQRPVRPGMAWNEDLPPIGGPSNFAQNAVPYPGGQGEAERFMTPRVREELLRHQLLEKRSMGMQRPLGMAGSGMGQSMEMERMIQAHRQMDPAMFPGQMTGGDGLAGTPMGIEFGGGRGLLSPPMGQSGLREVDPPMGPGNLNMNMNVNMNMNMNLNVQMTPQQQMLMSQKMRGPGDMMGPQGLSPEEMARVRAQNSSGMMGGPQKMLMPSQFPNQGQQGFSGGQGPYQAMPQDMGNTPDMFSPDQSSVPMGTVGTARLSHMPLPPASNPPGSVHLASNRGLGRRPSDLTISINQMGSPGMGHLKSPTLSQVHSPLVTSPSANLKSPQTPSQMVPLPSANPPGPLKSPQVLSSSLGVRSPTGSPSRLKSPSMAVPSPGWVASPKTAMPSPGVSQNKQPPLSINSSSTLGNVEQGALPPSAPRNSSSAPPANPSSGLMNPSLPFTSSPDPTPSQNPLSLMMSQMSKYAMPSSTPLYHNAIKTIATSDDELLPDRPLLPPPPPPQGSGPGISNNQPNQMHMNPAAAQSPMGMNLPGQQPLSHEPPPTMLPSPTPLGSNIPLHPNAQGTGGSSQNSMMMAPGGPDSLNAPCGPVPSSSQMMSFPPRLQQPHGAMAPTGAGGPGLQQHYPSGMALPPEDLPTQPPGPIPPQQHLMGKGMTGRMGDAYPPGVLPGVASVLNDPELSEVIRPTPTGIPEFDLSRIIPSEKPSSTLQYFPKSENQPPKAQPPNLHLMNLQNMMAEQTPSRPPNLPGQQGVQRGLSMSMCHPGQMSLLGRTGVPPQQGMVPHGLHQGVMSPPQGLMTQQNFMLMKQRGVGGEVYTQPPHMLSPQGSLMGPPPQQNLMVSHPLRQRSVSLDSQMGYLPTPGSMANLPF
partner: B1 chain
B3: WW domain-containing oxidoreductase (Homo sapiens), Q9NZC7 (parent)
chain: B1 chain
partner: B2 chain
B4: Segment polarity protein dishevelled homolog DVL-2 (Mus musculus), Q60838 (parent)
chain: B1 partner
partner: B1 chain

Variants of: B1
Conditions: with dvl2_mouse Dvl2, Q60838

effect of a mutation on the interaction	Variant
decreasing interaction	MAALRYAGLDDTDSEDELPPGWEERTTKDGWVRYANHTEEKTQWEHPKTGKRKRVAGDLPYGWEQETDENGQVFFVDHINKRTTYLDPRLAFTVDDNPTKPTTRQRYDGSTTAMEILQGRDFTGKVVVVTGANSGIGFETAKSFALHGAHVILACRNMARASEAVSRILEEWHKAKVEAMTLDLALLRSVQHFAEAFKAKNVPLHVLVCNAATFALPWSLTKDGLETTFQVNHLGHFYLVQLLQDVLCRSAPARVIVVSSESHRFTDINDSLGKLDFSRLSPTKNDYWAMLAYNRSKLCNILFSNELHRRLSPRGVTSNAVHPGNMMYSNIHRSWWVYTLLFTLARPFTKSMQQGAATTVYCAAVPELEGLGGMYFNNCCRCMPSPEAQSEETARTLWALSERLIQERLGSQSG [Y33R]

Variants of: B2
Conditions: with wwox_human WWOX, Q9NZC7

effect of a mutation on the interaction	Variant
disrupting interaction	Y561A

Variants of: B3
Conditions: with bcl9l_mouse Bcl9l, Q67FY2

effect of a mutation on the interaction	Variant
decreasing interaction	MAALRYAGLDDTDSEDELPPGWEERTTKDGWVRYANHTEEKTQWEHPKTGKRKRVAGDLPYGWEQETDENGQVFFVDHINKRTTYLDPRLAFTVDDNPTKPTTRQRYDGSTTAMEILQGRDFTGKVVVVTGANSGIGFETAKSFALHGAHVILACRNMARASEAVSRILEEWHKAKVEAMTLDLALLRSVQHFAEAFKAKNVPLHVLVCNAATFALPWSLTKDGLETTFQVNHLGHFYLVQLLQDVLCRSAPARVIVVSSESHRFTDINDSLGKLDFSRLSPTKNDYWAMLAYNRSKLCNILFSNELHRRLSPRGVTSNAVHPGNMMYSNIHRSWWVYTLLFTLARPFTKSMQQGAATTVYCAAVPELEGLGGMYFNNCCRCMPSPEAQSEETARTLWALSERLIQERLGSQSG [Y33R]

Variants of: B4
Conditions: with wwox_human WWOX, Q9NZC7

effect of a mutation on the interaction	Variant
decreasing interaction	Y568A
